From publication doi:10.1101/2024.11.01.621505

Molecular target: CCR9 ΔCT (human) (UniProt P51686)
Chain of UniProt P51686 (P51686 1-334, stated change not applied): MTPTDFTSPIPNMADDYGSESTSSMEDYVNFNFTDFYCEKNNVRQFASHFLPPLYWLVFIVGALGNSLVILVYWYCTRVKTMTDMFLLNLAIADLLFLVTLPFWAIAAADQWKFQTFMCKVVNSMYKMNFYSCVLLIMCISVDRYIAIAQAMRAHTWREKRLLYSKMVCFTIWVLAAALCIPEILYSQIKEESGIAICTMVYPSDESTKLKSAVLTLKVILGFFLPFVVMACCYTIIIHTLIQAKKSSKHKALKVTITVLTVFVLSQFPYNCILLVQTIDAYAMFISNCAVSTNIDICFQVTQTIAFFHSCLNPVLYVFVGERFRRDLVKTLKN

Gi activation: area over the G⍺i-Gβγ dissociation curve (AOC), against CCR9 WT: 6 fold
Substance: G⍺i-Nluc (from UniProt P63096 1-354) (natural protein)
